Experimental data taken from US20250382363A1 (NUMAB THERAPEUTICS, published 2025).
Changes are numbered by the printed parent chain. In names and notes the source's numbering stands.

B1: PRO2230 (scFv 37-20-B03-sc09.1) (scFv)
scFv: DIQMTQSPASLSASVGDRVTITCQASQSIGTYLAWYQQKPGKPPKLLIYRAFILASGVPSRFSGSGSGTDFTLTISSLQPEDFATYYCQSNFYSDSTTIGPNAFGTGTKVTVLGGGGGSGGGGSGGGGSGGGGSEVQLVESGGGLVQPGGSLRLSCAASGFSFNSDYWIYWVRQAPGKGLEWIASIYGGSSGNTQYASWAQGRFTISRDNSKNTVYLQMNSLRAEDTAVYFCARGYVDYGGATDLWGQGTLVTVSS
notes: also called PRO2230 wt; a-PD-L1 wt
B2: PRO2933 (scFv 37-20-B03-sc09.1_(L144K, T146E, S148K)) (scFv)
scFv: B1 scFv with L251K, T253E, S255K
notes: PRO2230 variant; VH substitutions, AHo numbering; also called PRO2230 L144K-T146E-S148K
B3: PRO3311 (scFv 37-20-B03-sc09.1_(L12A, T101Q, L144A, T146Q)) (scFv)
scFv: B1 scFv with L145A, T227Q, L251A, T253Q
notes: PRO2230 variant; VH substitutions, AHo numbering; also called PRO2230 L12A-T101Q-L144A-T146Q
B4: PRO2950 (scFv 37-20-B03-sc09.1_(T146Q)) (scFv)
scFv: B1 scFv with T253Q
notes: PRO2230 variant; VH substitution, AHo numbering; also called PRO2230 T146Q
B5: PRO3307 (scFv 37-20-B03-sc09.1_(L12A, T101S, L144A, T146R)) (scFv)
scFv: B1 scFv with L145A, T227S, L251A, T253R
notes: PRO2230 variant; VH substitutions, AHo numbering; also called PRO2230 L12A-T101S-L144A-T146R
B6: PRO2985 (scFv 37-20-B03-sc09.1_(T101A)) (scFv)
scFv: B1 scFv with T227A
notes: PRO2230 variant; VH substitution, AHo numbering; also called PRO2230 T101A
B7: PRO2952 (scFv 37-20-B03-sc09.1_(T101S)) (scFv)
scFv: B1 scFv with T227S
notes: PRO2230 variant; VH substitution, AHo numbering; also called PRO2230 T101S
B8: PRO2913 (scFv 37-20-B03-sc09.1_(T101S, T146Q)) (scFv)
scFv: B1 scFv with T227S, T253Q
notes: PRO2230 variant; VH substitutions, AHo numbering; also called PRO2230 T101S-T146Q
B9: PRO3309 (scFv 37-20-B03-sc09.1_(L12R, T101S, L144A, T146Q)) (scFv)
scFv: B1 scFv with L145R, T227S, L251A, T253Q
notes: PRO2230 variant; VH substitutions, AHo numbering; also called PRO2230 L12R-T101S-L144A-T146Q
B10: PRO2948 (scFv 37-20-B03-sc09.1_(T146R)) (scFv)
scFv: B1 scFv with T253R
notes: PRO2230 variant; VH substitution, AHo numbering; also called PRO2230 T146R
B11: PRO2947 (scFv 37-20-B03-sc09.1_(T146K)) (scFv)
scFv: B1 scFv with T253K
notes: PRO2230 variant; VH substitution, AHo numbering; also called PRO2230 T146K
B12: PRO2949 (scFv 37-20-B03-sc09.1_(T146E)) (scFv)
scFv: B1 scFv with T253E
notes: PRO2230 variant; VH substitution, AHo numbering; also called PRO2230 T146E
B13: PRO2986 (scFv 37-20-B03-sc09.1_(T146A)) (scFv)
scFv: B1 scFv with T253A
notes: PRO2230 variant; VH substitution, AHo numbering; also called PRO2230 T146A
B14: PRO2914 (scFv 37-20-B03-sc09.1_(T101S, L144A, T146Q)) (scFv)
scFv: B1 scFv with T227S, L251A, T253Q
notes: PRO2230 variant; VH substitutions, AHo numbering; also called PRO2230 T101S-L144A-T146Q
B15: PRO2984 (scFv 37-20-B03-sc09.1_(L12S, V103T, L144T)) (scFv)
scFv: B1 scFv with L145S, V229T, L251T
notes: VH substitutions, AHo numbering; also called PRO2230-L12S-V103T-L144T
B16: PRO3306 (scFv 37-20-B03-sc09.1_(L12A, T101R, L144A, T146Q)) (scFv)
scFv: B1 scFv with L145A, T227R, L251A, T253Q
notes: PRO2230 variant; VH substitutions, AHo numbering; also called PRO2230 L12A-T101R-L144A-T146Q
B17: PRO2935 (scFv 37-20-B03-sc09.1_(L144A, S148N)) (scFv)
scFv: B1 scFv with L251A, S255N
notes: PRO2230 variant; VH substitutions, AHo numbering; also called PRO2230 L144A-S148N
B18: PRO2988 (scFv 37-20-B03-sc09.1_(P48A)) (scFv)
scFv: B1 scFv with P176A
notes: PRO2230 variant; VH substitution, AHo numbering; also called PRO2230 P48A
B19: PRO3308 (scFv 37-20-B03-sc09.1_(L12A, T101S, L144K, T146Q)) (scFv)
scFv: B1 scFv with L145A, T227S, L251K, T253Q
notes: PRO2230 variant; VH substitutions, AHo numbering; also called PRO2230 L12A-T101S-L144K-T146Q
B20: PRO3310 (scFv 37-20-B03-sc09.1_(L12R, T101R, L144A, T146Q)) (scFv)
scFv: B1 scFv with L145R, T227R, L251A, T253Q
notes: PRO2230 variant; VH substitutions, AHo numbering; also called PRO2230 L12R-T101R-L144A-T146Q
B21: PRO2915 (scFv 37-20-B03-sc09.1_(L12A, T101S, L144A, T146Q)) (scFv)
scFv: B1 scFv with L145A, T227S, L251A, T253Q
notes: PRO2230 variant; VH substitutions, AHo numbering; also called PRO2230 L12A-T101S-L144A-T146Q
B22: PRO3312 (scFv 37-20-B03-sc09.1_(T101R, T146Q)) (scFv)
scFv: B1 scFv with T227R, T253Q
notes: PRO2230 variant; VH substitutions, AHo numbering; also called PRO2230 T101R-T146Q
B23: PRO2987 (scFv 37-20-B03-sc09.1_(P15A)) (scFv)
scFv: B1 scFv with P148A
notes: PRO2230 variant; VH substitution, AHo numbering; also called PRO2230 P15A
B24: PRO2903 (scFv 37-20-B03-sc09.1_(L12R, V103T, L144Q)) (scFv)
scFv: B1 scFv with L145R, V229T, L251Q
notes: VH substitutions, AHo numbering; also called PRO2230-L12R-V103T-L144Q
B25: PRO2934 (scFv 37-20-B03-sc09.1_(L144K, S148L)) (scFv)
scFv: B1 scFv with L251K, S255L
notes: PRO2230 variant; VH substitutions, AHo numbering; also called PRO2230 L144K-S148L
B26: PRO2951 (scFv 37-20-B03-sc09.1_(T101R)) (scFv)
scFv: B1 scFv with T227R
notes: PRO2230 variant; VH substitution, AHo numbering; also called PRO2230 T101R

Tests used:
[1] = target: T1, human a-PD-L1 Fc (Sino Biological, 10084-H02H, LC11NO2402) (human, UniProt Q9NZQ7 19-239); assay: SPR, PD-L1 Fc immobilised, scFv analyte, 1:1 fit
T1 construct: Bought Fc fusion immobilised on the SPR chip; Printed as 'a-PD-L1 Fc' but used as the antigen (ligand) for the anti-PD-L1 scFvs; also called Human PD-L1; not shown: Fc part
Method: The mutation variants were then injected at concentrations of 10 nM, 2 nM and 0.4 nM over the ligand-immobilized and reference spots. The wild type variants were used as a control, while an empty spot was used as reference.
After each cycle with analyte, the surface was regenerated with a 3M MgCl₂ solution, thereby allowing the next analyte cycle to have only free ligand available. Binding affinity KD was globally calculated by the Bruker SPR software based on the binding association (kₒₙ) and dissociation (Koff) rate, by fitting a 1:1 Langmuir model to the curves obtained by the cycles with the three different concentrations of the analyte.

[2] = target: pre-existing anti-drug antibodies (ADA) present in human sera; assay: pre-existing ADA ELISA, scFv coated, human sera unspiked vs spiked

T1 sequence (Q9NZQ7 19-239 limits assumed): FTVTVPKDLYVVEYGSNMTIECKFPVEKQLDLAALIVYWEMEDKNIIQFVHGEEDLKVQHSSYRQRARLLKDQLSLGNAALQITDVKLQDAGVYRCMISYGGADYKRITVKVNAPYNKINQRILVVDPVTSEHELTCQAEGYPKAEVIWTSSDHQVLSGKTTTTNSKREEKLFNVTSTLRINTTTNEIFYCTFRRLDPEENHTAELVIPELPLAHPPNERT

Row | Binder | Kd [1] | n-fold to wt [1] | Mean No of serum samples >30% inhibition (30% CCP) with SCP (serum samples) [2] | No of serum samples >30% inhibition (30% CCP) without SCP (serum samples) [2]
1 | B1 | 0.049 nM | 1 fold | 9 | 18
2 | B2 | 0.045 nM | 0.9 fold | 1 | 0
3 | B3 | 0.048 nM | 1 fold | 7 | 10
4 | B4 | 0.064 nM | 1.3 fold | 4 | 4
5 | B5 | 0.027 nM | 0.6 fold | 4 | 7
6 | B6 | 0.047 nM | 1 fold | 2 | 2
7 | B7 | 0.036 nM | 0.7 fold | 5 | 8
8 | B8 | 0.058 nM | 1.2 fold | 3 | 2
9 | B9 | 0.026 nM | 0.5 fold | 1 | 4
10 | B10 | 0.064 nM | 1.3 fold | 1 | 0
11 | B11 | 0.041 nM | 0.8 fold | 1 | 2
12 | B12 | 0.056 nM | 1.1 fold | 1 | 2
13 | B13 | 0.069 nM | 1.4 fold | 8 | 2
14 | B14 | 0.025 nM | 0.5 fold | 5 | 5
15 | B15 | 0.036 nM | 0.7 fold | 5 | 5
16 | B16 | 0.018 nM | 0.4 fold | 0 | 7
17 | B17 | 0.091 nM | 1.9 fold | 8 | 8
18 | B18 | 0.034 nM | 0.7 fold | 3 | 7
19 | B19 | 0.036 nM | 0.7 fold | 2 | 7
20 | B20 | 0.038 nM | 0.8 fold | 3 | 6
21 | B21 | 0.05 nM | 1 fold | 2 | 1
22 | B22 | 0.041 nM | 0.8 fold | 1 | 2
23 | B23 | 0.048 nM | 1 fold | 2 | 7
24 | B24 | 0.053 nM | 1.1 fold | 5 | 5
25 | B25 | 0.018 nM | 0.4 fold | 2 | 2
26 | B26 | 0.042 nM | 0.9 fold | 1 | 0
